Experimental data: article PMC2756588

T1: Lsb4, P32793
T1 sequence (P32793 402-468, looked up): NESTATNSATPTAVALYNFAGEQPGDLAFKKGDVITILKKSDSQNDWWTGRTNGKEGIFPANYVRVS

T2: Boi1, P38041
T2 sequence (P38041 1-86, looked up): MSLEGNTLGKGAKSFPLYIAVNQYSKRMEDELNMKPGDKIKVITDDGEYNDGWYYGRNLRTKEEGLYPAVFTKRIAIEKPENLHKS

T3: Bbc1, P47068
T3 sequence (P47068 1-78, looked up): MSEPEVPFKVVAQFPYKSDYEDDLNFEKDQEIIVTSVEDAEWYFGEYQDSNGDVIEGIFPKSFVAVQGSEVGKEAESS

T4: Bzz1-1, P38822
T4 sequence (P38822 478-572, looked up): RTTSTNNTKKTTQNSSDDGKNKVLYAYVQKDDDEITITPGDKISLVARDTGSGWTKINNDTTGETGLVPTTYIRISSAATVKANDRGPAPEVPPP

T5: Myo5, Q04439
T5 sequence (Q04439 1072-1160, looked up): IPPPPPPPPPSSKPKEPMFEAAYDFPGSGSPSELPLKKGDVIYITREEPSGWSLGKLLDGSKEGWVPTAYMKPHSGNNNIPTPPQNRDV

T6: Lsb3, P43603
T6 sequence (P43603 385-451, looked up): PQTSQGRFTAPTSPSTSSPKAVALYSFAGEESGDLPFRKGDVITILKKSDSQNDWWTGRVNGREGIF

T7: Pex13, P80667
T7 sequence (P80667 295-386, looked up): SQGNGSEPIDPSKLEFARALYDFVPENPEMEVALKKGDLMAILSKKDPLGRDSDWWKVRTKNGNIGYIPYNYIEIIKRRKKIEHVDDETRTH

T8: Cdc25, P04821
T8 sequence (P04821 50-136, looked up): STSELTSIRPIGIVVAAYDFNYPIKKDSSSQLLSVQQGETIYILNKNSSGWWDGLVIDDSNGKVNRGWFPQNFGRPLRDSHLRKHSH

T9: Sla1-2, P32790
T9 sequence (P32790 60-140, looked up): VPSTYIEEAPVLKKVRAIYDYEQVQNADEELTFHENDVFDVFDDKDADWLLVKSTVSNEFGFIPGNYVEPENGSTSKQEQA

T10: Nbp2, Q12163
T10 sequence (Q12163 103-180, looked up): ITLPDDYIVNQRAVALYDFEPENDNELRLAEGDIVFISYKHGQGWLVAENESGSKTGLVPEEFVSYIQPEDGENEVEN

T11: Lsb1, P53281
T11 sequence (P53281 45-122, looked up): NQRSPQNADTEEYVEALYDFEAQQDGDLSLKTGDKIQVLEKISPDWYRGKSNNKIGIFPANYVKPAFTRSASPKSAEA

T12: Boi2, P39969
T12 sequence (P39969 32-116, looked up): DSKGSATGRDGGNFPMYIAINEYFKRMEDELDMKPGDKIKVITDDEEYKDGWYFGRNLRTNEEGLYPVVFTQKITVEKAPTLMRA

T13: Cyk3, Q07533
T13 sequence (Q07533 1-83, looked up): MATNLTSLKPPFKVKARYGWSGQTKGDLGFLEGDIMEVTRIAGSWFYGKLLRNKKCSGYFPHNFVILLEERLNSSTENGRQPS

T14: Hse1, P38753
T14 sequence (P38753 208-285, looked up): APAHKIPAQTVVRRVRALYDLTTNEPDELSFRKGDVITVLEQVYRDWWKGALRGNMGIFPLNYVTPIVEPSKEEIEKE

T15: Abp1, P15891
T15 sequence (P15891 535-592, looked up): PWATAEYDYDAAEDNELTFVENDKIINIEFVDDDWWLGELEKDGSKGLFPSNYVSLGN

T16: Bud14, P27637
T16 sequence (P27637 247-328, looked up): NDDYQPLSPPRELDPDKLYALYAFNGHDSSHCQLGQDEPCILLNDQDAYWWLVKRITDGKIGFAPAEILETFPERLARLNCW

T17: Fus1, P11710
T17 sequence (P11710 432-512, looked up): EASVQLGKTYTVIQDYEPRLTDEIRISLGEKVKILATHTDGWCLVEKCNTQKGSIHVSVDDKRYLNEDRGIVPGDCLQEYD

T18: Pin3, Q06449
T18 sequence (Q06449 53-122, looked up): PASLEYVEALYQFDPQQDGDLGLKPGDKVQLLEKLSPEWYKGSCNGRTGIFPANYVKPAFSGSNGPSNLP

T19: Hof1, Q05080
T19 sequence (Q05080 590-669, looked up): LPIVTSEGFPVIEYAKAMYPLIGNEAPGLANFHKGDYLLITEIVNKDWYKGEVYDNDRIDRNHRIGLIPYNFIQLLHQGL

T20: Bzz1-2, P38822
T20 sequence (P38822 568-633, looked up): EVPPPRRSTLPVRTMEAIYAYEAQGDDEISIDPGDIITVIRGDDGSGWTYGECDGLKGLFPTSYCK

T21: Sla1-3, P32790
T21 sequence (P32790 344-424, looked up): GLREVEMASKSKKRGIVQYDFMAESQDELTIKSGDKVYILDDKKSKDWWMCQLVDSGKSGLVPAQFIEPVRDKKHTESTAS


Columns and labels:
Assay in all cases: SPOT array
[1] = biological target: T1, Lsb4, P32793; conditions: median of control spots 397
[2] = biological target: T2, Boi1, P38041; conditions: median of control spots 1162
[3] = biological target: T3, Bbc1, P47068; conditions: median of control spots 796
[4] = biological target: T4, Bzz1-1, P38822; conditions: median of control spots 4446
[5] = biological target: Myo3, P36006; conditions: median of control spots 468
[6] = biological target: T5, Myo5, Q04439; conditions: median of control spots 471
[7] = biological target: T6, Lsb3, P43603; conditions: median of control spots 406
[8] = biological target: T7, Pex13, P80667; conditions: median of control spots 1341
[9] = biological target: T8, Cdc25, P04821; conditions: median of control spots 969
[10] = biological target: Rvs167, P39743; conditions: median of control spots 2707
Rvs167, P39743, sequence (P39743 419-482): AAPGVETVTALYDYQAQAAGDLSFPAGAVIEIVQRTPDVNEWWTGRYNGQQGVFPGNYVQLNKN

[11] = biological target: T9, Sla1-2, P32790; conditions: median of control spots 712
[12] = biological target: T10, Nbp2, Q12163; conditions: median of control spots 357
[13] = biological target: T11, Lsb1, P53281; conditions: median of control spots 388
[14] = biological target: T12, Boi2, P39969; conditions: median of control spots 1161
[15] = biological target: T13, Cyk3, Q07533; conditions: median of control spots 1451
[16] = biological target: T14, Hse1, P38753; conditions: median of control spots 1727
[17] = biological target: Bem1-1, P29366; conditions: median of control spots 4282
Bem1-1, P29366, sequence (P29366 55-141): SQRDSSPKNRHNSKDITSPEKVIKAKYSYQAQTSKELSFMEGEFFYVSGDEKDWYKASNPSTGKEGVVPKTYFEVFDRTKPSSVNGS

[18] = biological target: T15, Abp1, P15891; conditions: median of control spots 935
[19] = biological target: GST; conditions: median of control spots 978
[20] = biological target: Sho1, P40073; conditions: median of control spots 1148
Sho1, P40073, sequence (P40073 287-367): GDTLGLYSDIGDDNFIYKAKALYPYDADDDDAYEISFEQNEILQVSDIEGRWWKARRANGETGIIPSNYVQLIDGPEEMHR

[21] = biological target: T16, Bud14, P27637; conditions: median of control spots 956
[22] = biological target: T17, Fus1, P11710; conditions: median of control spots 1200
[23] = biological target: T18, Pin3, Q06449; conditions: median of control spots 2171
[24] = biological target: Bem1-2, P29366; conditions: median of control spots 4347
Bem1-2, P29366, sequence (P29366 139-227): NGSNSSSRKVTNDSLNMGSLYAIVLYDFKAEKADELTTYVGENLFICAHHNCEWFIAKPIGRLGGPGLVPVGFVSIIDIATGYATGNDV

[25] = biological target: T19, Hof1, Q05080; conditions: median of control spots 4086
[26] = biological target: T20, Bzz1-2, P38822; conditions: median of control spots 4538
[27] = biological target: T21, Sla1-3, P32790; conditions: median of control spots 5475

Binder	SPOT intensity [1]	SPOT intensity [2]	SPOT intensity [3]	SPOT intensity [4]	SPOT intensity [5]	SPOT intensity [6]	SPOT intensity [7]	SPOT intensity [8]	SPOT intensity [9]	SPOT intensity [10]	SPOT intensity [11]	SPOT intensity [12]	SPOT intensity [13]	SPOT intensity [14]	SPOT intensity [15]	SPOT intensity [16]	SPOT intensity [17]	SPOT intensity [18]	SPOT intensity [19]	SPOT intensity [20]	also measured
QNTPPLPPKPKSPHL	231	3	0	0	0	0	249	309	0	8	1	1	0	0	0	634	0	16	2	72	SPOT intensity [21]: 0; SPOT intensity [22]: 0; SPOT intensity [23]: 0; SPOT intensity [24]: 16; SPOT intensity [25]: 1320; SPOT intensity [26]: 2; SPOT intensity [27]: 0
TSFKGRPKPPKTLKH	0	1	5	0	0	0	0	3	2	0	0	0	0	0	2	2	0	128	0	43	SPOT intensity [21]: 1; SPOT intensity [22]: 1; SPOT intensity [23]: 4; SPOT intensity [24]: 0; SPOT intensity [25]: 1; SPOT intensity [26]: 11; SPOT intensity [27]: 2
ATKSASPTLPTRRSR	1180	3	79	3	12	0	834	249	22	1540	8	2	56	0	1	2	3	182	1	132	SPOT intensity [21]: 8; SPOT intensity [22]: 2; SPOT intensity [23]: 20; SPOT intensity [24]: 18; SPOT intensity [25]: 0; SPOT intensity [26]: 1; SPOT intensity [27]: 1
SKIRPTPRKPSRMAT	162	4	37	6	50	23	124	40	35	148	21	44	10	3	6	19	6	345	2	177	SPOT intensity [21]: 13; SPOT intensity [22]: 12; SPOT intensity [23]: 20; SPOT intensity [24]: 50; SPOT intensity [25]: 8; SPOT intensity [26]: 16; SPOT intensity [27]: 21
